{"source": "the DeepSol protein solubility set", "data": [{"test": "soluble on expression in E. coli; label from the status in PepcDB or PDB records", "values": [{"sequence": "MSSNLTSNEMSSTSAIVEPPEAVKGNERDKSTRRSTSQVVRPEKHEVENALEDQCSSSSLPKEAQYYAKLDKKLEGKDPRSQFYEAVRLSADIFAHKFEKAVCSRQTFEPTNSIIKVLNTAEEEMLHEKVVPLPVSSKLQYYLNRGRYDTIFDRDEQLQRTADPMADEPDHVEKRVTSILEQASREMEEGEVEPVFYDGSDEDQELPIDLGAMRNLQRTNKFAARSSRMAARRGGRPGYRGAFRGAARGAPSRRPAPAAEVAPETPVAAPMAPAAPAAPATPEAAPAAEVMDTSIATEMPQESAVDLSNVSAATEMDTSKEGEASRPTSEKKKKIRTTEMDRLMSMDLGPKDGGRVGELGHMWPESRRRPAAPLPETPAAQPRKSLPRRAAEKKKPEDSDAAEEQEVEMEVDNDASTSTPRNARGGRGGGNRRGSRRGQKRTSGGSGKLVEPKKEPVDEPAEKIPKRSEAAPEVPATATTKEAPPSTSSSPPDAPATPATPASSDSRDSPRKIRAMIFSLTGSPPESETPPVLQQEQVISTAAPTAGRHPNIIQQVPHINRIPPQPLRRLTAPQAPPASQPEEPPVQQTVPVVKVELASAPAPIVRDPQSTEPVPPAMPTLVENNHEATLILPPNKTSDYTRWNAQDLINWVRLLITNNVDSTIAIMVREEFDGETLACLVLDDDFRKEVPIPYGHYKKMKIYGTEVLNHYRTEKYQADLRKFHEELAAWKAQQR", "soluble on expression in E. coli": "not soluble"}, {"sequence": "MSSPDSAAHQFSICRVCDDSNGQPHYGTICCPSCKGFFRRVYMSDKKFECYRGNMCVIQKGTRNICRACRYKKCLQVGMNVKGSTTRHNLRINIYVQTSAESTPKSSKDTEMGVAEAMEMAQVYMNLEKYCENNYCESNMCREEENRLIDRMLSSTVHELIQKTSPQCPRFKRDWKPLEMLNLENFCRSWSRSIVHFLDFATRFPVFNQLSHIDKRAWFISRLAPCSFLTMAYQTRIEMCEGLLFGCSNVFPLKSDRWIAVETEHLRGLFSSITETMFSFVIYPMMNLKITDLHYSLLKACVFFSAGIVVTSVSDKGMEIMRNEYTKHKNALMKLLMNGVERFSQQTDILFQIQDVQNTLEHHKHLKSQQI", "soluble on expression in E. coli": "soluble"}, {"sequence": "MSSQPKLRILCLHGYRQCDQSFRQKTGSTRKLVKSLAEFEFVNGVHSVAVDEHVDSSRAWWFSNNEAMSFSSRESTEVAVGFEESVAAVVKFIEENGPFDGLLGFSQGASMVHLLIAKAQLGEIKLPGIRFAIFFSGFLSLSSKHDSLTLLRIKEFPSMHVFGDADEIVARPKSEKMADMFDVEPLRIAHDGGHVVPSMSKHKEKIAGFMREQLDRKIENN", "soluble on expression in E. coli": "not soluble"}, {"sequence": "MSSRKVSRAHYDEDELASAANMSLVAEGHFRGMKELLSTMDLDTDANTIPELKERAHMLCARFLGGAWKTVPLEHLRISRIKGGMSNMLFLCRLSEVYPPIRNEPNKVLLRVYFNPETESHLVAESVIFTLLSERHLGPKLYGIFSGGRLEEYIPSRPLSCHEISLAHMSTKIAKRVAKVHQLEVPIWKEPDYLCEALQRWLKQLTGTVDAEHRFDLPEECGVSSVNCLDLARELEFLRAHISLSKSPVTFCHNDLQEGNILLPKASSGNIRMPSLSDETQALGNSLSAFNPADPRLVLIDFEYASYNYRAFDFANHFIEWTIDYDIDEAPFYKIQTENFPENDQMLEFFLNYLREQGNTRENELYKKSEDLVQETLPFVPVSHFFWGVWGLLQVELSPVGFGFADYGRDRLSLYFKHKQLLKNLASHQ", "soluble on expression in E. coli": "soluble"}, {"sequence": "MSSSNENAGKHSYLRSLISGLSSQGICAYVYASSGYGESSTDIVFTGKAFIAEAGEIVEEMERFRYEERMIISDIDVSRIQTERLINSSFKAAVTFHTHDEKFNQLPFKLRSRQESLPMTRRVLEHHHHHH", "soluble on expression in E. coli": "soluble"}, {"sequence": "MSSVPKNKDELELAINSIFPKLMVDYRSIPESKARKVGVEGNVKGTFISVSDTVAYLIGWGKLVLKWHRLKSQNQHVDFPETGYKWNQLGLLAESFHEEYRDWKYSDLLVELEFTINEILLLISSLSDHELYGVAWYEQWTLGRMIQFNTSSPMKNMRTKVRRFNREFTLEHHHHHH", "soluble on expression in E. coli": "not soluble"}, {"sequence": "MSSYDIAIIGGGISGVGIAQYAAAAGYSTLLIEKGEIGGQTSANSSKLIHGGLRYLESGQINLVRKSLLERRNLLDLAPSLVKPVAFYIPVYQDSRRNPLTIRAGLSLYALLSEFDPLGRFVSIPAVHWHRFKGLKLSGLKAVFQYWDAQTDDKLLTQAVARSAQALGAHIYAEAEFLQLNHLKEQIELSFRHRGEVQQIETKLVINAAGPWVNEVLAHVEPPLAGVEIDWVQGAHLLLDLPAPEGILYLESCFDKRVIFVMPWYGQMLIGTTETVLTSIDTPPQVTESETQYLLGIYCHYFPLSPSIEELKTKIVQTYCGVRVLPKQASSAFERPRDTLMQTSISHPRLLCLYGGKLTTFRSSSAEVLEWIEQKLGKRQPIADIDTLKLTLEHHHHHH", "soluble on expression in E. coli": "not soluble"}, {"sequence": "MSTDEERIYSIALTQIPGVGHIGAKRLVDGMGSATDVFRYRTELPDRLPGVNRAVVAALDSPQALKRAEQEYEFARNNRISCFTLADEDYPSRLRECDDAPVVLFFKGKANLNALHIINMVGTRNATDYGKHICVSFLQELQMLCPDVLVVSGLAYGIDINAHRSALSVELPTVGVLAHGLDRIYPSLHRKTAIDMLRQGGLLTEFLSGTNPDKHNFISRNRIVAGISDATIVVESAAKGGSLITADIAGSYHRDCFAFPGRVTDEYSKGCNQLIQDNKAVLLESASDFVKTMGWDSDLKSVKPETVQRNLFPDLSAEELRIVDILGKLGDLQINALMVQADIPINKISAILFELEMKGVIRVLAGGVYQLLR", "soluble on expression in E. coli": "not soluble"}, {"sequence": "MSTEDALCFTGEEYARHVREYWRGVAESDGFDSEDIRSPVVLTGLFHYDCQSGRRYPDPLLVKRYALLGLHRFNILQGTSFELDALQKFNKTMNLTSSYYITLLANEPGAIPLQKTFQVRVDERKYDTLDLTVAIARLKKDQNEAAETTKEPFVPHFCCSAVSDGVFQGPLPDWPSDDALRHDRNRFYELEKSEWQATDWISLYLELLILATDRGMFGVAQTGLPQVQILKVVIETEEENEKPLDKRLNARRAHVYITFTGLPKSPRLVEIGEHVERKAIIRRVIDDSGYLTLLGKFWSGKDTEQRSKTRQSEEKVESSQKRSRLC", "soluble on expression in E. coli": "soluble"}, {"sequence": "MSTHASAHGSTHTSTHHPIAVIGAGLGGLAAARVLHVHGIEAAVYEADASPTARHQGGMLDIHGESGQAALRAAGLYEEFRAIVHPGGEATRILDKDGTVRHEEGDRPEEGDRPEVDRNDLRRILLDSLPEGTIRWGAKVTGARALGGGRHEVTLADGSVFTTDVLIGADGAWSRIRPLLSPATPAYTGISFVEADLHEAATRHRAAAELVGGGSMFALAEGKGILTHLETDGSVHAYVALKADEDWLSTIDFTGTDTDTAKKTLLTHFEDWDDRLRALITDADGALVPRLIHALPVDHRWERTAGVTLLGDAAHLMSPFAGEGANLALLDGAELATALAAHPADPESALTAYERSLFPRSHRAAGESAANLTFMFGPNALEELVGMMSGHEPSDRLEHHHHHH", "soluble on expression in E. coli": "soluble"}, {"sequence": "MSTLLPFPCEEKIPEGKYVLRTFEIKEGQVKEKLKDLNYEILASLSGVDLTFEKEEEWKKAKEILSDYVYTDRPESLEETLGRILKEKGFTLSTAESCTAGMLSSRIVNVPGSSEYFVGGFVVYSNDLKVKYLCVSEDTLKKYGAVSWQTCLEMTVGLKSNLGTDCGIAITGIAGPGGTLTKPQGLTYIGIFVKDKLTVIKRIFKGSRNENRFLSTQTAIFYLLKLLKR", "soluble on expression in E. coli": "soluble"}, {"sequence": "MSTNPGPAEGANQVMAQEHSAGAVQFTAHNVRLDDGTLTIPESSRTLDESSWFISARGILETVFPGDKSHLRLADVGCLEGGYAVGFARMGFQVLGIEVRELNMAACNYIKSKTNLPNLRFVHDNALNIANHGLFDTVFCCGLFYHLENPKQYLETLSSVTNKLLILQTHFSIINRSDKWLRLPTTARQLTDRLLRRPAPVKFMLSAPTEHEGLPGRWFTEFSDDRSFGQRDTAKWASWDNRRSFWIQREHLLQAIKDVGVDLVMEEYDNLEPSIAESLLGGSYAANLRGTFIGIKTR", "soluble on expression in E. coli": "soluble"}, {"sequence": "MSTQKRAIAKTDMLKFTETSQPIGQKKYVELSKDIFIFSYLCGGINFTDIANLTQENIVNGRLHYIRQKTGKLIKIGIPQEAMQIIKKYTDESNGYLFPILNVKVHKTALQKQNRIHKIRGKVNDILKTLGKRLGIEANITTYVARHSFASVLKKSGVNIALISEALGHSDLATTQIYLDSFDNEQVDEAMKNLLEHHHHHH", "soluble on expression in E. coli": "not soluble"}, {"sequence": "MSTRKAVIGYYFIPTNQINNYTETDTSVVPFPVSNITPAKAKQLTHINFSFLDINSNLECAWDPATNDAKARDVVNRLTALKAHNPSLRIMFSIGGWYYSNDLGVSHANYVNAVKTPASRAKFAQSCVRIMKDYGFDGVDINWEYPQAAEVDGFIAALQEIRTLLNQQTITDGRQALPYQLTIAGAGGAFFLSRYYSKLAQIVAPLDYINLMTYDLAGPWEKVTNHQAALFGDAAGPTFYNALREANLGWSWEELTRAFPSPFSLTVDAAVQQHLMMEGVPSAKIVMGVPFYGRAFKGVSGGNGGQYSSHSTPGEDPYPSTDYWLVGCEECVRDKDPRIASYRQLEQMLQGNYGYQRLWNDKTKTPYLYHAQNGLFVTYDDAESFKYKAKYIKQQQLGGVMFWHLGQDNRNGDLLAALDRYFNAADYDDSQLDMGTGLRYTGVGPGNLPIMTAPAYVPGTTYAQGALVSYQGYVWQTKWGYITSAPGSDSAWLKVGRVA", "soluble on expression in E. coli": "soluble"}, {"sequence": "MSTSNAQSGRAAAIARRNAQVKGKGYTASAAPAAPRKPAAPVAEPVVAAAPAPSQPSRSRRKVSVAPTATPAASAAGREAAKLKRQQQKNGKSSAGAANAMPHPKAKAKQKPEEPIVEPRQAKAEKPTKRSERRTGVKPQVASQQPSGRLQSKAYRKAQAKGKAGQEAFKSNGSSQSGAKAKLANPDASTREIAQQVRAERCAQGKTCSTGGSRPMRKRRNAKEAPQKVGESQTLHGQSVSGTQVGQGEKKMTGSESGACQLVSGTEYLGAEEFSKNCDVQPTPQPAKVTQTQTTRGQVVSGSTKVGRSDKMTGNETGTCSAITGTEYLPADQSKMYCGETPAKSKATGFSVMSQATQKSEQKVTGGDSRKSQSTTFKPKNPASAPHKVMPSQTAKGNTTTGSQVGRLESVTGGERGSCHAVTGTGYQGAEEAKACDMPMTETADKVTASGTAGGQKVTGDRSGAYYGMTGAEAGDCKTITGTSYTGTEQFQFCSVDEQNEMKVRQRKGANPSISGVQPGPQGLTGAQKGACELVTGSHYQGGDQTAMVCDSTNAAAPGESDFPAMIGQAQPAFSTNEVEPMVDEGSKITGDGWDRGSKVTGTDGPWAAQRNASIRGVAGQSPMGASQYRPVNNEVPMSPITGSSGNTDTGAKVTLSGGARA", "soluble on expression in E. coli": "not soluble"}, {"sequence": "MSTSRDRVRQALSHQGSDRIPVDFGATAVTGIHCRVVEALRKHYGLSYKPVKIVDTFQMLGEVDRDLADAMGVDCIGVGGTRDIFDHDTECMHEQVTPWGQKVLVPIQLDLTQDKEGDVYVYAGGDKNYPPSAVMPNGCFFINAIERQQPIDEDKLNPMDNLEEFNSITDEELDVYKKKVNEASATGRAVVASFGGTALGDVAFVPGMGLKEPKGIRSVVEWYMSTVMRQEYLHEIFRRQTDIAIANYEKLWAVLGDKVDVVLTCGTDFGSQESQFCSVEVFNELWLPHYRRMNDWIHEHTTWKVFKHSCGAIVPILPGLIKAGFDIINPVQINAKDMDSGMLKREFGSHLTFWGGGVDTQKMLPFGTPDEIRRHVLGQCEILGKDGGFVFNSVHNIQANVPVENVIAMLDALKTVLEHHHHHH", "soluble on expression in E. coli": "not soluble"}, {"sequence": "MSTSTAPSSASSDADSLNHDENPIKAVIFDYGEVMWMQSRNVHVYRKIEEDNKLFDNSLIPTLVSKELSSILPKGFQEDLLTGIYTAKDFDRLFLSAYNRKFGSQVESLKFFSATEYDNDAVYEEAVLTACQKLRERGVKTILMLDTYHVDEKRNGRRIPNMEKYFDHVIESCKEGVKKPDPRFYQIALDCVDVQPEEVIYIDDSKINCESAAVLGIRYIQVFNSMDMLEDLQEILGFDLD", "soluble on expression in E. coli": "not soluble"}]}]}
